Blank lines part the entries; values can stand above or below the binder they belong to.
Tests used:
[1] = target: human αV on parental A375M cells (αVβ3 and αVβ5) (human) (UniProt P06756); assay: FACS, supernatant, parental A375M cells (αVβ3 and αVβ5, no αVβ6)
[2] = target: human αV on parental A375M cells (αVβ3 and αVβ5) (human) (UniProt P06756); assay: cell-based or functional assay
[3] = target: cynomolgus β6 on transfected HEK-293 cells (cynomolgus); assay: FACS, purified mAb, transiently transfected HEK-293 cells (parental cells 74)
[4] = target: mouse αV on transfected HEK-293 cells (mouse) (UniProt P43406); assay: as above
[5] = target: T1, mouse β6 on transfected HEK-293 cells (mouse) (UniProt Q9Z0T9); assay: as above
T1 sequence (looked up): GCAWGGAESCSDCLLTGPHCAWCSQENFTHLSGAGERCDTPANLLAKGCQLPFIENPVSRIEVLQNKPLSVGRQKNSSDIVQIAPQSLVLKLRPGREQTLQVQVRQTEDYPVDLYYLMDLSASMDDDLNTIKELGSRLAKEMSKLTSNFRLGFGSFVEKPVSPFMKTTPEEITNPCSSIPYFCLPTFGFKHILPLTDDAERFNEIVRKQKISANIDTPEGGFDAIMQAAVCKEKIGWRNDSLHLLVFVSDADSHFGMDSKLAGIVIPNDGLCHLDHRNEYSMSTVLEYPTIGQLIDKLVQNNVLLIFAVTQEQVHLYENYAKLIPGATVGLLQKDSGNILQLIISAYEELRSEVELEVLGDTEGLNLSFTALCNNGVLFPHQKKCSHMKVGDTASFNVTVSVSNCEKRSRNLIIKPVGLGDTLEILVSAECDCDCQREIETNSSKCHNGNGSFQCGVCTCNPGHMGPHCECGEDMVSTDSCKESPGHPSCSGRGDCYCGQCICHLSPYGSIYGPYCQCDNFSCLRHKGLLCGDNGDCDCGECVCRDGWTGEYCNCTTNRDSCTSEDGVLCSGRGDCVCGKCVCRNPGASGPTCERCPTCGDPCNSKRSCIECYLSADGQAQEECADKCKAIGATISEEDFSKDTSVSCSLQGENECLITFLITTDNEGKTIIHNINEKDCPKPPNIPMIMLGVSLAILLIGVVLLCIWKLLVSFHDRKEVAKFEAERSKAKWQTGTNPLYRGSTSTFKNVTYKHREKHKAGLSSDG

mouse αV on transfected HEK-293 cells (mouse), sequence (P43406 31-1044): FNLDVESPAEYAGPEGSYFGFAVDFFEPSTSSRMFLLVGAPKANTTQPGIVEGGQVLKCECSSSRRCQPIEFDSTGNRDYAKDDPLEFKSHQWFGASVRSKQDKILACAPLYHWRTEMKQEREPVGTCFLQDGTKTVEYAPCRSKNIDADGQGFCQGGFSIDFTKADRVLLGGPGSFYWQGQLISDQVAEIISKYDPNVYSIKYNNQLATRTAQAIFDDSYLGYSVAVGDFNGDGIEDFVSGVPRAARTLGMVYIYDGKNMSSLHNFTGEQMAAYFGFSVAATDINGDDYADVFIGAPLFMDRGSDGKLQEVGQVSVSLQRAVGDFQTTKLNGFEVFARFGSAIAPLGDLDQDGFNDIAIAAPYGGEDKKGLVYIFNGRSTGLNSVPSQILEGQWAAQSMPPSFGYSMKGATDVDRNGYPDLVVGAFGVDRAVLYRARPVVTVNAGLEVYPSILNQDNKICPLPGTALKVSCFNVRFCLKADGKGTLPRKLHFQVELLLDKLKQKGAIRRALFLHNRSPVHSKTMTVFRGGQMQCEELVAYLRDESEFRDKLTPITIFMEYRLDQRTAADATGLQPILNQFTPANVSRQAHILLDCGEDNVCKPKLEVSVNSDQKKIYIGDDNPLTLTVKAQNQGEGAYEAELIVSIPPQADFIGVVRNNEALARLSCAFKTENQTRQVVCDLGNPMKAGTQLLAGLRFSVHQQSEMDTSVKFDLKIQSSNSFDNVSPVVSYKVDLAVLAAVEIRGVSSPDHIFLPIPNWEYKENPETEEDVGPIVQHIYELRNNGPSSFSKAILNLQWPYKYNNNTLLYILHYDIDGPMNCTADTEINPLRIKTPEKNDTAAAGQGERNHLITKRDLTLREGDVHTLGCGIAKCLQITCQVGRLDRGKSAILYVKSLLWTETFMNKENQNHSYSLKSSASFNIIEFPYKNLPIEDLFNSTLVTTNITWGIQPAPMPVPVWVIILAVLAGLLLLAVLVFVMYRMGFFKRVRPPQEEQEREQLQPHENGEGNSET

A375M % Shifted Cells [1]: 23%
A375M GeoMean [1]: 1.86
B1: sc 277 (antibody, V domains shown)
VH: EVQLVQSGAEVKKPGESLKISCKGSGYSFPSYWIGWVRQMPGKGLEWMGIIYPGDSDTRYSPSFQGQVTISADKSISTAYLQWSSLKASDTAMYYCARHPMEDGMDVWGQGTTVTVSS
VL: SYELTQPPSVSVSPGQTARITCSGDALPKKYAFWYQQKSGQAPVLVIYDDNKRPSGIPERFSGSSSGTMATLTITGAQVEDEADYYCYSTDSSGHHVFGGGTKLTVL

A375M % Shifted Cells [1]: 11%
A375M GeoMean [1]: 16.7
B2: sc 161 (antibody, V domains shown)
VH: EVQLVQSGAEVKKPGESLKISCKGSGYSFTSYWIGWVRQMPGKGLEWMGIIYPGDSDTRYSPSFQGQVTISADKSISTAYLQWSSLKASDTAMYYCARHGIAAAGFYYYYMDVWGQGTTVTVSS
VL: EIVLTQSPDTLSLSPGERASLSCRASQNVNRNYLVWYQQKPGQAPRLLIYGTSNRATGIPDRFSGSGSGTDFTLTISRLEPEDFAVYYCQQCGSLPFTFGPGTKVDIKR

Percent Inhibition, adhesion of A375M cells to osteopontin peptide, 5 µg/ml [2]: 3%
A375M % Shifted Cells [1]: 46%
A375M GeoMean [1]: 2.35
percent of cells shifted [3]: 75%
percent of cells shifted [4]: 71%
percent of cells shifted [5]: 68%
B3: sc 264 (antibody, V domains shown)
VH: QVQLQESGPGLVKPSQTLSLTCTVSGGSISSGGYYWSWIRQHPGKGLEWIGYIYYSGRTYNNPSLKSRVTISVDTSKNQFSLKLSSVTAADTAVYYCARVATGRGDYHFYAMDVWGQGTTVTVSS
VL: SYELTQPSSVSVSPGQTARITCSGDVLAKKSARWFHQKPGQAPVLVIYKDSERPSGIPERFSGSSSGTTVTLTISGAQVEDEAAYYCYSAADNNLVFGGGTKLTVL

A375M % Shifted Cells [1]: 15%
A375M GeoMean [1]: 23.2
B4: sc 320 (antibody, V domains shown)
VH: EVQLVESGGGLVKPGGSLRLSCAASGYTFTNYIMHWVRQAPGKGLEWVSSISISSSYIYYADSVKGRFTISRDNAKNSLYLQMNSLRAEDTAVYYCARDPVPLERRDYYYGMDVWGQGTTVTVSS
VL: QSVLTQPPSMSAAPGQKVTISCSGSSSNIGNNYVSWYQQLPGTAPKLLIYDNNKRPSGIPDRFSGSKSGTSATLGITGLQTGDEADYYCGTWDSSLSAGVFGGGTKLTVL

A375M % Shifted Cells [1]: 24%
A375M GeoMean [1]: 1.84
B5: sc 97 (antibody, V domains shown)
VH: EVQLVQSGAEVKKPGESLKISCKGSGYSFTSYWIGWVRQMPGKGLEWMGIIYPGDSDTRYSPSFQGQVILSADKSISTAYLQWSSLKASDTAMYYCARHDESSGYYYVFDIWGQGTMVTVSS
VL: SYELTQPPSVSVSPGQTARITCSGDALPKKYAYWYQQKSGQAPVLVIYEDIKRPSGIPERFSGSSSGTMATLTISGAQVEDEADYYCYSTDSSGNHWVFFGGGTKLTVL

Percent Inhibition, adhesion of A375M cells to osteopontin peptide, 5 µg/ml [2]: 3%
A375M % Shifted Cells [1]: 24%
A375M GeoMean [1]: 1.79
B6: sc 133 (antibody, V domains shown)
VH: QVQLVQSGAEVKKPGASVKVSCKASGYTFTGYYMHWVRQAPGQGLEWMGWINPKSGDTNYAQKFQGRVTLTRDTSTSTAYMELSRLRSDDTAVYYCARRLDVWGQGTTVTVSS
VL: QSVLTQPPSVSAAPGQKVTISCSGSSSNIGNNYVSWYQQLPGTAPKLLIYDNNKRPSGIPDRFSGSKSGTSATLGITGLQTGDEADYYCGTWNSSLSAGYVFGTGTKVTV

From US20150166663A1
